# Test results: patent US20130171170A1 (published 2013)
# B1: murine anti-human CD22 10F4.4.1 monoclonal antibody (antibody, V domains shown)
# VH: QVQLQQSGPELVKPGASVKISCKASGYEFSRSWMNWVKQRPGQGREWIGRIYPGDGDTNYSGKFKGKATLTADKSSSTAYMQLSSLTSVDSAVYFCARDGSSWDWYFDVWGAGTTVTVSS
# VL: DILMTQTPLSLPVSLGDQASISCRSSQSIVHSNGNTFLEWYLQKPGQSPKLLIYKVSNRFSGVPDRFSGSGSGTDFTLKISRVEAEDLGVYYCFQGSQFPYTFGGGTKVEIK
# notes: Murine hybridoma antibody (ATCC PTA-7621); also called mu 10F4; Mu 10F4.4.1
# Key:
# [1] = biological target: T1, cynomolgus monkey (cyno) CD22 expressed on the surface of CHO cells (cynomolgus monkey); test: cell-based competitive binding of 125I-labelled against unlabelled antibody on CHO cells, 4 h at 4 C, Scatchard analysis
# T1 construct: residues 1-19 (signal) should be removed
# T1 chain: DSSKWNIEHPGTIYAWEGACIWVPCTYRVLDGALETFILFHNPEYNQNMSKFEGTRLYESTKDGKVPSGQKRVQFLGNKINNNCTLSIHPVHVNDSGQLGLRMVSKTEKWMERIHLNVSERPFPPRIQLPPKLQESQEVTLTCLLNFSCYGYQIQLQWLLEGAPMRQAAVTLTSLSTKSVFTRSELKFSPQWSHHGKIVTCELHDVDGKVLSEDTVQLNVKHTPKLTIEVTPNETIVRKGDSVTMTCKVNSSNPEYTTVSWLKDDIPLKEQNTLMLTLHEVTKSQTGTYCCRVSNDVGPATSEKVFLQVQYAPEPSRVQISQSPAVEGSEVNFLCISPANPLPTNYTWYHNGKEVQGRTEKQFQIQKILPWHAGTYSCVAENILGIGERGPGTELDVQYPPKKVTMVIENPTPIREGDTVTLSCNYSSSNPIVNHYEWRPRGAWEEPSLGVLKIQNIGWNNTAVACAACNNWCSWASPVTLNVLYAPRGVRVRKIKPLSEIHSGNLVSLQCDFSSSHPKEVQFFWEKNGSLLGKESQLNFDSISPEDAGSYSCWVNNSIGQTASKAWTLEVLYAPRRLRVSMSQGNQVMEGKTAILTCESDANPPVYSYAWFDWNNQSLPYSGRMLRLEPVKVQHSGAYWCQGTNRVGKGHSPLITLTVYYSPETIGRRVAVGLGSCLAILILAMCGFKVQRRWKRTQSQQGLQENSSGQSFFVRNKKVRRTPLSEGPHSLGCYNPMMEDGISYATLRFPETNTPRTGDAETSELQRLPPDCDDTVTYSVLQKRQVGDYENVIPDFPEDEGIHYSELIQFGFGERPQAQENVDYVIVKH
# Description: Briefly, CHO cells stably expressing full length human CD22 (SEQ ID NO:27) or cynomolgus monkey (cyno) CD22 (SEQ ID NO:31). […] A cell-based, competitive binding assay was performed using serially diluted, unlabeled anti-CD22 antibody. Antibodies were allowed to bind to the cells for 4 hours at 4° C. Binding affinity, KD, of the antibodies was determined in accordance with standard Scatchard analysis performed utilizing a non-linear curve fitting program (see, for example, Munson et al., Anal Biochem, 107: 220-239, 1980).
# [2] = biological target: T2, human CD22-beta-ECD-His tagged soluble antigen (human, UniProt P20273 22-681); test: SPR (BIACORE 3000), antibody coupled to the chip, soluble CD22-beta-ECD-His injected, 25 C
# T2 construct: also called soluble CD22 extracellular domain (ECD); Soluble Human CD22
# T2 sequence: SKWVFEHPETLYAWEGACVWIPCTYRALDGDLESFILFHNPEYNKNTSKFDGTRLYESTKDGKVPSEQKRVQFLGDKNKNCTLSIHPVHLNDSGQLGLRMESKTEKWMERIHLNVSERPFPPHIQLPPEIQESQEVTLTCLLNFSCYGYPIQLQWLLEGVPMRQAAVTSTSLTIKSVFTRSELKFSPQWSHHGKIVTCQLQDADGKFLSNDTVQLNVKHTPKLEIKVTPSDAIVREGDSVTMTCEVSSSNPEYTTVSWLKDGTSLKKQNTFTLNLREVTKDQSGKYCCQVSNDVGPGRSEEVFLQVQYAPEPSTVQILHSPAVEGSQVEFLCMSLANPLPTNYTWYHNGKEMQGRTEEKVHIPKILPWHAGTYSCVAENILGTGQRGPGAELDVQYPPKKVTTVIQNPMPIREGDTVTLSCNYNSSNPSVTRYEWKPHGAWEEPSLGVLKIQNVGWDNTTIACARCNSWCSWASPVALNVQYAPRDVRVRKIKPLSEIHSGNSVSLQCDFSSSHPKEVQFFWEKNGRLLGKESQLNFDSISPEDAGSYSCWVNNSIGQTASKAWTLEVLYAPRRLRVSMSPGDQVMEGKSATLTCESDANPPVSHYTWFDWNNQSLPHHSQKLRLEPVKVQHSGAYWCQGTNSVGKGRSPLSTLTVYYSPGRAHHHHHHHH
# Description: The binding affinity of murine and humanized 10F4 antibody for soluble CD22 extracellular domain (ECD) was determined by surface plasmon resonance measurement using a BIACORE® 3000 system (Biacore, Inc., Piscataway, N.J.). Briefly, carboxymethylated dextran biosensor chips (CMS, Biacore Inc.) were activated with N-ethyl-N′-(3-dimethylaminopropyl)-carbodiimide hydrochloride (EDC) and N-hydroxysuccinimide (NHS) according to the supplier's instructions. These activated chips were coated with anti-CD22 IgG1 antibody 10F4 (murine or humanized) by dilution to 5 μg/ml with 10 mM sodium acetate, pH 4.8, before injection at a flow rate of […] to achieve approximately 500 response units (RU) of coupled antibody. Next, 1M ethanolamine was injected to block unreacted groups. […] Association rates (kₒₙ) and dissociation rates (koff) were calculated using a simple one-to-one Langmuir binding model (BIAevaluation Software version 3.2). The equilibrium dissociation constant (Kd) was calculated as the ratio koff/kₒₙ. Anti-CD22 antibody, RFB4, was used as a control (Chemicon International, Inc., Temecula, Calif., catalog no. CBL147).
binder,measurement,setting,value
B1,Kd,[1],2.3 nM
same,Kd,[2],15 nM
same,koff,[2],0.00028 s⁻¹
same,kon,[2],19000 M⁻¹ s⁻¹
